“And” between values parts separate entries of the source, which are not always exact repeats. Equal values may be shown once. “Also recorded” adds a separate entry of the source.
B1: hPTH 7-84: Synthetic human PTH 7-84 purchased from Bachem; large non-(1-84) PTH fragment, PTH antagonist (PIN) (peptide)
peptide: LMHNLGKHLNSMERVEWLRKKLQDVHNFVALGAPLAPRDAGSQRPRKKEDNVLVESHEKSLGEADKADVNVLTKAKSQ
B2: hPTH 1-84: Synthetic human PTH 1-84 purchased from Bachem; complete 84 amino acid human parathyroid hormone (SEQ ID NO: 1) (peptide)
chain: SVSEIQLMHNLGKHLNSMERVEWLRKKLQDVHNFVALGAPLAPRDAGSQRPRKKEDNVLVESHEKSLGEADKADVNVLTKAKSQ

Columns and labels:
PTX rats = experiment: Calcemic response in parathyroidectomized (PTX) rats; assay type: in vivo, Sprague-Dawley rats
Protocol: Calcemic response. Normal female Sprague-Dawley rats weighing 225 to 250 g (Harlan, Indianapolis, Ind., USA) were parathyroidectomized (PTX) and fed a 0.02% calcium diet. Rats with a plasma calcium below 7.0 mg/dL after overnight fasting were included in the study. A 20 μg dose of hPTH 1-84 or 7-84 was given intraperitoneally to PTX rats in four doses of 5 μg each at 30-minute intervals (0, 30, 60, and 90 minutes). For control studies, the rats received vehicle (saline solution) alone. Blood was drawn via the tail at 0, 60, 90, and 120 minutes. For competition experiments, rats received an injection of hPTH 7-84 10 minutes prior to each injection of hPTH 1-84. The molar ratio of hPTH 7-84/hPTH 1-84 was 1:1.
Total plasma calcium levels were determined using an atomic absorption spectrophotometer (model 1100B; Perkin Elmer, Norwalk, Conn., USA). Plasma phosphorus levels were determined using an autoanalyzer (COBAS MIRA Plus; Roche, Newark, N.J., USA).

ROS/17.2 cells = experiment: cAMP production in osteoblastic cell line ROS/17.2; assay type: cell-based, rat; conditions: for effect on cAMP production: 10^-11 to 10^-8 mol/L, no-effect statement at 10^-8 mol/L
Protocol: Osteoblastic cell line. To compare the biological effects of the two peptides (hPTH 1-84 and 7-84), intracellular cAMP production was measured in the rate osteosarcoma cell line ROS/17.2, which has an osteoblastic phenotype and is known to increase cAMP production in response to PTH. Cells were cultured in Ham's F12 media containing 10% fetal bovine serum. Cells were plated out in 12-well plates at a density of 30,000 cells per well and grown to confluence. Cells were washed three times with KHMS buffer at 37° C. (KCI 4.0 mmol/L, CaCl2 1.25 mmol/L, MgSO4 1.25 mmol/L, KH2PO4 1.2 mmol/L, HEPES 10 mmol/L, NaCl 100 mmol/L, NaHCO3 37 mmol/L, and glucose 10 mmol/L, pH 7.5). cAMP production was measured using 500 μL of KHMS buffer (37°) containing isobutyl-1 methylxantine (IBMX) 1.0 mmol/L and various concentrations (10^−11 to 10^−8 mol/L) of hPTH 1-84 or hPTH 7-84. After a five-minute incubation, 100 μL of 1.8 mol/L pechloric acid were added. After an additional five-minute incubation at room temperature, 100 μL of 3 mol/KHCO3 were added to neutralize the acid. Samples were centrifuged at 3000 rpm for 15 minutes, and the supernatants were assayed for cAMP [26].

Sprague-Dawley rats = experiment: Phosphaturic response (clearance studies) in rats; assay type: in vivo
Protocol: Phosphaturic response. Normal female Sprague-Dawley rats weighing 225 to 250 g were prepared for clearance studies under light anesthesia. Polyethylene catheters (PE50) were placed in the femoeral artery for the collection of blood and measurement of blood pressure (Blood Pressure Analyzer; Micro-Medic, Inc., Louisville, Ky., USA), in the femoral vein for infusion and in the bladder for the collection of urine. Rats were placed in Plexiglas® holders and allowed to recover from the effect of the anesthetic for one hour. A priming dose (0.6 mL) of chemical inulin in saline was administered over a period of three minutes to achieve a plasma inulin level between […]. A solution of saline containing inulin to maintain this level and calcium gluconate to deliver 0.5 mg. Calcium was infused at the rate of 0.03 mL/min. After equilibration, a total of four 30-minute urine collections was obtained.
To assess the effect of hPTH 1-84 on phosphate excretion, urine was collected during two control periods, after which rats received a priming bolus of 1.8 μg of hPTH 1-84 followed by a sustained infusion that delivered a total of 8.2 μg of I-PTH. After an equilibration period of 20 minutes, two 30-minute urine collections were obtained. […]
Blood samples and blood pressure measurements were recorded at the beginning and end of the baseline period, at the beginning of the PTH infusion period, and at the end of the study. The concentration of inulin in plasma and urine was determined by the method of Fuhr, Kaczmarczyk, and Kruttgen, Klin Wochenschr, 33:729-730 (1955). The estimation of the glomerular filtration rate (GFR) by inulin clearance and the calculation of the fractional urinary excretion rate of phosphorus (FEP04) were performed in the standard fashion. Blood samples were centrifuged, and plasma phosphorus and calcium concentrations were measured.

Nichols Intact PTH assay = experiment: Nichols Intact (I-Nichols) PTH assay, recognition of hPTH 1-84 vs hPTH 7-84; assay type: binding; conditions: compared with hPTH 1-84
Description: The present whole IRMA assay was compared to a conventional intact PTH or I-PTH immunoassay, the Allegro Nichols Intact-PTH assay, (which is commercially available and made by Nichols Institute Diagnostics of San Juan Capistrano, Calif., U.S.A.), in both PTH normal persons and those suffering from chronic uremia. This I-PTH immunoassay, detects both PTH7-84 and wPTH (see FIG. 10).
This new Whole PTH two-site assay (Scantibodies Laboratories, Santee, Calif., USA) first employees and antibody that recognizes the 39-84 region of the PTH molecule. This antibody, produced in a goat and affinity purified, is present in relative excess and is immobilized onto polystyrene-coated tubes. The second antibody, also developed in a goat, was also affinity purified and recognizes only the first six amino acids (1 to 6; Ser-Val-Ser-Glu-Ile-Gln) of the human PTH molecule (FIG. 1). This anti-hPTH assay uses synthetic human PTH 1-84 as the standard, with a limit of detection of approximately 1 to 2 pg/mL. Normal values range from 5 to 35 pg/mL. […] The Whole PTH assay was compared with the Intact PTH assay purchases from the Nichols Institute (I-Nichols, San Jan Capistrano, Calif., USA). Synthetic human PTH 1-84 and 7-84 were purchased from Bachem (Torrance, Calif. USA). To assess circulating levels of hPTH 1-84 and non-(1-84) PTH, heparinized blood samples were obtained before dialysis from 28 patients who had been maintained on chronic hemodialysis for 1.2 to 7.5 years and from 14 renal transplant patients (1 to 6 years).

[1] = test system: Whole PTH assay (goat antibodies to PTH 39-84 and to the first six amino acids of human PTH); experiment: Whole PTH IRMA assay, recognition of hPTH 1-84 vs hPTH 7-84; assay type: binding; conditions: hPTH 7-84 at a concentration as high as 10,000 pg/mL
Protocol: Another method would be to couple the initial wPTH sequence antibody to colloidal solid supports, such as latex particles. More specifically, one can create a signal antibody by iodinating 50 micrograms of affinity purified goat anti-(1-6) PTH antibody (Scantibodies Laboratory, Inc., Santee Calif., U.S.A.) by oxidation with chloramine T, incubation for 25 seconds at room temperature with 1 millicurie of 125-1 radioisotope and reduction with sodium metabisulfate. […] The fractions collected from the desalting column are measured in a gamma counter and those fractions representing the 125-1-goat anti-(1-6) PTH antibody are pooled and diluted to approximately 300,000 D PM (disintegrations per minute) per 100 microliters. […]
To conduct a whole PTH assay of a sample, 200 microliter samples of human serum are added to the solid phase antibody coated tubes. […] Radioactivity on the solid phase, which amount corresponds to the quantity of wPTH present, is measured using a gamma counter. The radioactivity data for the samples is processed by conventional analysis with use of the results from standards and controls and computer software in order that the concentration of whole PTH in the samples may be ascertained. […]

Row | Molecule | decrease in plasma calcium (PTX rats; PTX rats fed a 0.02% calcium diet, 20 μg intraperitoneally in four doses of 5 μg, N=5, P<0.05) [mg/dL] | decrease of the calcemic response induced by hPTH 1-84 alone (PTX rats; hPTH 7-84 given with hPTH 1-84 in a 1:1 molar ratio, PTX rats, N=6, P<0.001) [%] | effect on cAMP production (ROS/17.2 cells) | decrease of the increase in FEP04 (phosphaturia) induced by hPTH 1-84 (Sprague-Dawley rats; co-administration of hPTH 7-84 with hPTH 1-84 (molar ratio 4:1)) [%] | glomerular filtration rate (GFR), treatment period (Sprague-Dawley rats; hPTH 7-84 given simultaneously with hPTH 1-84 (molar ratio 4:1), increased from 2.1±0.1, N=8, P<0.05) [mL/min] | recognition by the Nichols Intact PTH assay (Nichols Intact PTH assay) | recognition by the Nichols Intact PTH assay (Nichols Intact PTH assay; listed as 7-84) | recognition by the Nichols Intact PTH assay (Nichols Intact PTH assay; listed as PTH7-84) | detection by the Whole PTH assay [1] | increase in plasma calcium (PTX rats; PTX rats fed a 0.02% calcium diet, 20 μg intraperitoneally in four doses of 5 μg, N=9, P<0.001) [mg/dL] | intracellular cAMP after treatment (ROS/17.2 cells; 10^-8 mol/L peptide, five-minute incubation, increased from 18.1±1.25 nmol/well, N=6) | glomerular filtration rate (GFR), treatment period (Sprague-Dawley rats; rats infused with hPTH 1-84 alone, control period 1.8±0.3, N=10) [mL/min] | fractional excretion of phosphate (FEP04), treatment period (Sprague-Dawley rats; rats infused with hPTH 1-84 alone, increased from 11.9±2.4, N=10, P<0.001) [%]
1 | B1 | 0.30 ± 0.08 | 94 | no effect | 50.2 | 2.6 ± 0.2 | does not differentiate | did not discriminate | detects | undetectable | – | – | – | –
2 | B2 | – | – | increased cAMP production in a does-dependent manner; also recorded: increased cAMP production in a dose-dependent manner | – | – | – | – | – | detected with a high degree of sensitivity | 0.65 ± 0.10 | 738±4.13 nmol/well and 738±4.1 nmol/well | 1.8 ± 0.1 | 27.7±2.4

— patent US8329409B2, “Methods, kits, and antibodies for detecting parathyroid hormone” (Scantibodies Laboratory, Inc., priority 1999, dated 2012)
